Data as given in patent publication US20240025971A1.

B1: AB-009202 (antibody, V domains shown)
VH: QVQLVESGGGVVQPGRSLRLSCAASGFTFSSYGMHWVRQAPGKGLEWVAVIWYDGSNKYYADSVKGRFTISRDNSKNTLYLQMNSLRAEDTAVYYCARDGGPEYYFDYWGQGTLVTVSS
VL: SYELTQPPSVSVSPGQTARITCSGDALPKQYAYWYQQKPGQAPVLVIYKDSERPSGIPERFSGSSSGTTVTLTISGVQAEDEADYYCQSADSSGTYNVVFGGGTKLTVL
B2: AB-009231 (antibody, V domains shown)
VH: EVQLVESGGGLVQPGGSLRLSCAASGFTFSSYWMSWVRQAPGKGLEWVANIKQDGSEKYYVDSVKGRFTISRDNAKNSLYLQMNSLRAEDTAVYYCARVSMRFLEWSFYYYYYMDVWGKGTTVTVSS
VL: SSELTQDPAVSVALGQTVRITCQGDSLRSYYASWYQQKPGQAPVLVIYGKNNRPSGIPDRFSGSSSGNTASLTITGAQAEDEADYYCNSRDSSGNHLGVVFGGGTKLTVL
B3: AB-009627 (antibody, V domains shown)
VH: QVQLQQWGAGLLKPSETLSLTCAVYGGSFSGYYWSWIRQPPGKGLEWIGEINHSGSTNYNPSLKSRVTISVDTSKNQFSLKLSSVTAADTAVFYCARGGYSSSWYGEKYWFDPWGQGTLVTVSS
VL: QSALTQPRSVSGSPGQSVTISCTGTSSDVGGYNYVSWYQQHPGKAPKLMIYDVSKRPSGVPDRFSGSKSGNTASLTISGLQAEDEADYYCCSYAGSPYVFGTGTKVTVL
B4: AB-009108 (antibody, V domains shown)
VH: QVQLQESGPGLVKPSETLALTCTVSGDSIINNNFYWGWLRQPPGQGLEWIGSLFHTGSAYYNSSLKSRVRSSVDTARNQISLRLSSVTAADTAVYYCARVNIVSVPAPPGAIEGWFDPWGQGTRVTVSP
VL: SYELTQPPSVSVSLGQTARISCSGDALPTKYVHWYQQKAGQAPVVVIFRDTERPSEIPERFSGSSSGTTVTLTISGVQAEDEADYYCQSVDGSGFYVFGSGTKVTVL
B5: AB-009244 (antibody, V domains shown)
VH: EVQLVESGGGLVQPGGSLRLSCAASGFAFNTYGINWVRQAPGKGLEWVSFISSRSTTIHYADSVRGRFTISRDNAKNSLYLQMNNLRDEDTAVYYCARDLLIWFGETGAFDIWGQGTMVTVSS
VL: EVVMTQSPATLSVSSGERVTLSCRASQSVSNNLAWYQQKPGQAPRLLIYGASTRATGFPARFSGSGSGTEFTLTISSLQSEDFAVYYCQQYNIWPPGTFGQGTKLEIK
B6: AB-009237 (antibody, V domains shown)
VH: QVQLLQSGAEVKKPGASVSVSCKASGFTFTSYYFHWVRQAPGQGLEWMGIVSPAGGSTNYAQKFQGRVTMTRDTSTSTVHMELRNVRYDDTAVFYCARSVYCSSPSCPHGMDVWGPGTMVTVSS
VL: DIQVTQSPSTLSASVGDRVTITCRASQSILTYLAWYQQKPGKAPNLLIYKASNLQSGVPSRFSGSGSGTEFTLTISSLQPDDFATYHCQQYKSYPFSFGQGTKLAIK
B7: AB-009174 (antibody, V domains shown)
VH: QVQLQQWGAGLLKPSETLSLTCAVYGESFSGYYWNWIRQPPGKGLEWIGEIDQSGSTNYNPSLKSRVTISVDTSKNQFSLKLTSVTAADTAVYYCARVSGRMQLWLRAGYMDVWDKGTTVTVSS
VL: QSALTQPASVSGSPGQSITISCTGTSSDVGRYNYVSWYQQHPGKAPKLMIYEVSNRPSGVSNRFSGSKSGNTASLTISGLQAEDEADYYCSSYTTSSTRVFGGGTKLTVL

Biological target: SARS-CoV-2 Spike (S) trimer (SARS-CoV-2), P0DTC2
Experiment: ELISA, S trimer coated, 1:50 dilution
Settings: remark: other sources report otherwise

**Q.** For B1, which Optical Density (OD; 450 nm) is on record?
**A.** 1.99 OD450

**Q.** B2 was tested. Which Optical Density (OD; 450 nm) did it give?
**A.** 0.46 OD450

**Q.** How did the Optical Density (OD; 450 nm) turn out when B3 was run?
**A.** 0.823 OD450

**Q.** With B4 as the binder, how does the Optical Density (OD; 450 nm) read?
**A.** 0.28 OD450

**Q.** With B5 as the binder, how does the Optical Density (OD; 450 nm) read?
**A.** 0.239 OD450

**Q.** How did the Optical Density (OD; 450 nm) turn out when B6 was run?
**A.** 0.228 OD450

**Q.** B7 was tested. Which Optical Density (OD; 450 nm) did it give?
**A.** 0.154 OD450
